Laboratory results: patent US20260098088A1 (DISC MEDICINE, published 2026)

Tests used:
Test in all cases: cell-based or functional assay
[1] = target: T1, membrane-bound human RGMc (human, UniProt Q6ZVN8 36-400)
T1 sequence: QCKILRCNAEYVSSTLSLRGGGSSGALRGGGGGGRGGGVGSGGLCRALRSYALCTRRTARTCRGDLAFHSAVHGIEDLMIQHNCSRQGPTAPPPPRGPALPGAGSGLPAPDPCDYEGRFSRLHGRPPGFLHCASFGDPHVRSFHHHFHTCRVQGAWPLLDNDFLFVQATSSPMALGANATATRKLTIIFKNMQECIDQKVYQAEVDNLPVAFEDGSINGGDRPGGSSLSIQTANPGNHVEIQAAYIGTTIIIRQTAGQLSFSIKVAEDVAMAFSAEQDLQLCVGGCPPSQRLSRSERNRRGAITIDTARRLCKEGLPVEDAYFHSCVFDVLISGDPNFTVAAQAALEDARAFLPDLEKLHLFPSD

[2] = target: T1, membrane-bound human RGMc; remark: listed apart in the source
[3] = target: T2, membrane-bound human RGMa (human, UniProt Q96B86 169-424)
T2 sequence (looked up): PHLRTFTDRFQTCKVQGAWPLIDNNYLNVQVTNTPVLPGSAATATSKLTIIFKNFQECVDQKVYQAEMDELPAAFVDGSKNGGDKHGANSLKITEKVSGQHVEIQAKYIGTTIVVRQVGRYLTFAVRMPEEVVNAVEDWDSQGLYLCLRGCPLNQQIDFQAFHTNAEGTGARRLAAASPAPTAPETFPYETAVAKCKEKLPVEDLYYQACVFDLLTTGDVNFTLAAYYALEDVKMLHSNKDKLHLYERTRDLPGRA

B1: hHA-008 (antibody, human IgG1, kappa, L234A L235A)
heavy: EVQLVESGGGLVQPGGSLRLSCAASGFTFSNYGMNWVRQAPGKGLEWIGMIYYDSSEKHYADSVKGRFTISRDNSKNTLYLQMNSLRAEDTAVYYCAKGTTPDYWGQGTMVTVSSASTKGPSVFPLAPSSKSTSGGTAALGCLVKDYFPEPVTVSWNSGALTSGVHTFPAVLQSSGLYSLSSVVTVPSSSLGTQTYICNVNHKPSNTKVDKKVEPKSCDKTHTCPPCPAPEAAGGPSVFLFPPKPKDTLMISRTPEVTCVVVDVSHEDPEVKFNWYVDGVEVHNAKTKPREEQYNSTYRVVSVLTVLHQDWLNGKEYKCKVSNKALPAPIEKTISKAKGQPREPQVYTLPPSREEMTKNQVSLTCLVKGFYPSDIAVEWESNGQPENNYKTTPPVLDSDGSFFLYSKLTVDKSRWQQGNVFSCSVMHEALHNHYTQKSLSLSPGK
light: DVVLTQSPLSLPVTLGQPASISCRSSQSLEESDGYTFLHWFQQRPGQSPRLLIYEVSTRFSGVPDRFSGSGSGTDFTLKISRVEAEDVGVYYCFQATHDPLTFGQGTKLEIKRTVAAPSVFIFPPSDEQLKSGTASVVCLLNNFYPREAKVQWKVDNALQSGNSQESVTEQDSKDSTYSLSSTLTLSKADYEKHKVYACEVTHQGLSSPVTKSFNRGEC
IC50 (nM), BMP reporter assay for RGMc [1]: 0.377 nM
Potency on membrane hRGMc (RGMc/BMP reporter assay) IC50 [2]: 0.37 nM

B2: hHA-004 (antibody, human IgG1, kappa, L234A L235A, V domains shown)
VH: EVQLVESGGGLVQPGGSLRLSCAASGFTFSNYGMNWIRQAPGKGLEWIGMIYYDSSEKHYADSVKGRFTISRDNSKNTLYLQMNSLRAEDTAVYYCAKGTTPDYWGQGTMVTVSS
VL: DVVLTQSPLSLPVTLGQPASISCRSSQSLESSDGDTFLEWFQQRPGQSPRLLIYDVSTRFSGVPDRFSGSGSGTDFTLKISRVEAEDVGVYYCFQVTHDPVTFGQGTKLEIKR
IC50 (nM), BMP reporter assay for RGMc [1]: 0.312 nM
Potency on membrane hRGMc (RGMc/BMP reporter assay) IC50 [2]: 0.31 nM
Potency on membrane hRGMa (RGMa/BMP reporter assay) IC50 [3]: 2 nM

B3: hHA-009 (antibody, human IgG1, kappa, L234A L235A, V domains shown)
VH: EVQLVESGGGLVQPGGSLRLSCAASGFTFSNYGMNWVRQAPGKGLEWIGMIYYDSSEKHYADSVKGRFTISRDNSKNTLYLQMNSLRAEDTAVYYCAKGTTPDYWGQGTMVTVSS
VL: DVVLTQSPLSLPVTLGQPASISCRSSQSLADSDGDTFLHWFQQRPGQSPRLLIYAVSHRFSGVPDRFSGSGSGTDFTLKISRVEAEDVGVYYCFQATHDPVTFGQGTKLEIKR
IC50 (nM), BMP reporter assay for RGMc [1]: 1.36 nM
Potency on membrane hRGMc (RGMc/BMP reporter assay) IC50 [2]: 1.36 nM

B4: hHA-011 (antibody, human IgG1, kappa, L234A L235A, V domains shown)
VH: EVQLVESGGGLVQPGGSLRLSCAASGFTFSNYGMNWVRQAPGKGLEWIGMIYYDSSEKHYADSVKGRFTISRDNSKNTLYLQMNSLRAEDTAVYYCAKGSTPDYWGQGTMVTVSS
VL: DVVLTQSPLSLPVTLGQPASISCRSSQSLEDSDGGTFLEWFQQRPGQSPRLLIYDVSSRFSGVPDRFSGSGSGTDFTLKISRVEAEDVGVYYCFQATHDPLSFGQGTKLEIKR
IC50 (nM), BMP reporter assay for RGMc [1]: 0.0554 nM
Potency on membrane hRGMc (RGMc/BMP reporter assay) IC50 [2]: 0.52 nM
Potency on membrane hRGMa (RGMa/BMP reporter assay) IC50 [3]: 1.7 nM
